Numbered stars: 1 amine (or outer) side, 2 acyl side, 3 side chain; on linkers, the order of the positions; unused ones are H or OH. Bridge positions count the residues as written; N and C are the ends. Square brackets hold non-standard residues; d marks the D form. Primed or numbered codes have the meaning given here. KCOpipzaa″ = (2S)-2-amino-6-{[4-(carboxymethyl)piperazine-1-carbonyl]amino}hexanoic acid, O=C(NCCCC[C@H](N[*:1])C(=O)[*:2])N1CCN(CC(=O)[*:3])CC1; Hgn″ = (2S)-2-amino-5-carbamoylpentanoic acid (homoglutamine), NC(=O)CCC[C@H](N[*:1])C(=O)[*:2]; Trp(1-Me,7-Cl) = Cn1cc(C[C@H](N)C(=O)O)c2cccc(Cl)c21; dPhe(3-CONH2) = NC(=O)c1cccc(C[C@@H](N)C(=O)O)c1; Trp(1-Me) = Cn1cc(C[C@H](N)C(=O)O)c2ccccc21; NMe3Pal = CN[C@@H](Cc1cccnc1)C(=O)O; Gly(cBu) = N[C@H](C(=O)O)C1CCC1
Target: T1, Recombinant Human EphA2 Fc Protein (Fc tag, Elabscience) (human, UniProt P29317 24-534)
T1 construct: Bought protein (Elabscience), captured with the Human Antibody Capture kit; also called hEphA2; not shown: Fc tag of the commercial protein
T1 sequence (P29317 24-534 limits assumed): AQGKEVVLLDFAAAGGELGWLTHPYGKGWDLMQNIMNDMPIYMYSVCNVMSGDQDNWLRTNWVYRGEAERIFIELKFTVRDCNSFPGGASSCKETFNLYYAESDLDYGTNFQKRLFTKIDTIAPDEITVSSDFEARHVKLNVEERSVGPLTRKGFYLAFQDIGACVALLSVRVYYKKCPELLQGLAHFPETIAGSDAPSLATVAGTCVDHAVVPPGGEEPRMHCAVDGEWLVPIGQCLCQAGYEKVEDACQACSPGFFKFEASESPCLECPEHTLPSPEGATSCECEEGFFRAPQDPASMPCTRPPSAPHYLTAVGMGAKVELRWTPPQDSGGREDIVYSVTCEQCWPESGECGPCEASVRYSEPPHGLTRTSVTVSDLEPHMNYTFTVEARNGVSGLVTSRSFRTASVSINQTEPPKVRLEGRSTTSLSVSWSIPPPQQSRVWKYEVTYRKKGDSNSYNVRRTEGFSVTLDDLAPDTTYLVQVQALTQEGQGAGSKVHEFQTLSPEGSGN
Assay: SPR Biacore T200, EphA2-Fc captured, single-cycle kinetics; grade, legend 0 < A ≤ 1 nM
Description: The HBS-P+ buffer (10 mM HEPES (pH7.4), 150 mM NaCl, 0.05% (v/V) Surfactant P20) containing 1% DMSO was used as running buffer. Recombinant Human EphA2 Fc Protein (Fc tag, Elabscience) was captured by Human Antibody Capture kit (Cytiva). Peptide samples in DMSO were diluted with running buffer, and prepared five serial dilutions. Using these serial dilutions, kinetics of peptides against EphA2 was measured at a flow rate of 30 mL/min at 25° C. The method adopted for sample measurement was a single-cycle kinetics method. The analysis was conducted using the evaluation software 3.0 provided with Biacore T200. Kinetics fitting was done on the difference data obtained by subtracting the baseline data from sample measurement data. KD values were calculated based on the association rate constant (ka) and dissociation rate constant (kd).

B1: PDC_EphA2-00019438 (peptide)
peptide: {CH2CO}-[dPhe(3-CONH2)][NMe3Pal]N[Gly(cBu)][Hgn″][NMe3Pal][Trp(1-Me,7-Cl)][KCOpipzaa″][Trp(1-Me)]T[Hgn″]C-NH2
modifications: thioether N-12
SMILES: C[C@@H](O)[C@@H]1NC(=O)[C@H](Cc2cn(C)c3ccccc23)NC(=O)[C@H](CCCCNC(=O)N2CCN(CC(=O)O)CC2)NC(=O)[C@H](Cc2cn(C)c3c(Cl)cccc23)NC(=O)[C@H](Cc2cccnc2)N(C)C(=O)[C@H](CCCC(N)=O)NC(=O)[C@H](C2CCC2)NC(=O)[C@H](CC(N)=O)NC(=O)[C@H](Cc2cccnc2)N(C)C(=O)[C@@H](Cc2cccc(C(N)=O)c2)NC(=O)CSC[C@@H](C(N)=O)NC(=O)[C@H](CCCC(N)=O)NC1=O
B1 showed a Kd of no more than 1 nM.
